Biological target: Rpc160-HTP (largest subunit of RNAPIII, C-terminally His6–TEV–Protein A tagged) (S. cerevisiae) (UniProt P04051)
Test: affinity purification with mass spectrometry; Rpc160-HTP as bait; as a3 but lysate treated with RNase A (20 μg/ml, 20 min at 25°C); label-free quantitative MS

Sequence of UniProt P04051 (P04051 whole entry): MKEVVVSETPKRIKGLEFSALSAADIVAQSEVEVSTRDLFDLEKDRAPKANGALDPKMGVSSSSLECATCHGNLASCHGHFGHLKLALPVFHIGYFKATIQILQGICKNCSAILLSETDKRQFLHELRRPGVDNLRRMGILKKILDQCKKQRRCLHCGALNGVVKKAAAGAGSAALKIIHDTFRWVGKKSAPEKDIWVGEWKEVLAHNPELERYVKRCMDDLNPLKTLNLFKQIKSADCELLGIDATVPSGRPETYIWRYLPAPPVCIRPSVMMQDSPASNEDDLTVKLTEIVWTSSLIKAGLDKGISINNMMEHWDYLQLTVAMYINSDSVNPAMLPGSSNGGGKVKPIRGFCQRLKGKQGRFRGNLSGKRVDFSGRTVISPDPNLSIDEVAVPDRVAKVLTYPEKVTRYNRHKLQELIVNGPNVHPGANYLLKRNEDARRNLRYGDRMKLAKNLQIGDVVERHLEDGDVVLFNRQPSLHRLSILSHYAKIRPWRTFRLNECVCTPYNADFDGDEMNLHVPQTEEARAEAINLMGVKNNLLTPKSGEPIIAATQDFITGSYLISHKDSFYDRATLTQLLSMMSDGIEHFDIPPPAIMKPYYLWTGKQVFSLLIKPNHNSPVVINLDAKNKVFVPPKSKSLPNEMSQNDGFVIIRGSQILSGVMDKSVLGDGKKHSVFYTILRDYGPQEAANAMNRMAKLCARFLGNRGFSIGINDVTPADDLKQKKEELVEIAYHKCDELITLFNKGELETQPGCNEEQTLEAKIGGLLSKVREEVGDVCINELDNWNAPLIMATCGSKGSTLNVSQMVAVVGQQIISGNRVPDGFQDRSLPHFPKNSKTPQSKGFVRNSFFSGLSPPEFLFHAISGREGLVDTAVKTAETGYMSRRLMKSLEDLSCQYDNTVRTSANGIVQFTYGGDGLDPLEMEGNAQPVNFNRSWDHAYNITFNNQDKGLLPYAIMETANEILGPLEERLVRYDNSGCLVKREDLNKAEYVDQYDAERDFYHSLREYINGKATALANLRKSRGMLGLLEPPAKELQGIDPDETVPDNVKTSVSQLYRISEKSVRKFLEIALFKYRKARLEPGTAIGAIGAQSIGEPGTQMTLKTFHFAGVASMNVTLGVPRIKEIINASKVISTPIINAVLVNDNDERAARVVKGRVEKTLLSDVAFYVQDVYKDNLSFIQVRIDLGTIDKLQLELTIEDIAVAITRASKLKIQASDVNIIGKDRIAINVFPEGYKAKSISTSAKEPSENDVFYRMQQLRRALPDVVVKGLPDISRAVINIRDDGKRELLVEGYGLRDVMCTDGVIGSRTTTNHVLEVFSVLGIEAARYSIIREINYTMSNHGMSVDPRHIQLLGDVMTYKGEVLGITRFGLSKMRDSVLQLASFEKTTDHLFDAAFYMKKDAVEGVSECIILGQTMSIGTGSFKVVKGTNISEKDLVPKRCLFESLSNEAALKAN

Sen1 (untagged, in cells expressing Rpc160-HTP, SEN1 background) (from UniProt Q00416 1-2231) (natural protein)
fold decrease of RNAPIII-bound Sen1 with RNase A treatment against no treatment: 2 fold

From paper PMC9278858
